The term Kd denotes the free concentration of one partner at which half of the binding sites on the other are occupied at equilibrium, for simple one-to-one binding. In general, koff refers to a measure of how fast the partners let go of each other. For orientation: kon means a measure of how fast the partners come together.

Assay [1] addresses soluble extracellular fragment of TLT-1 (sTLT-1) (human) (UniProt Q86YW5). Nature of the assay: SPR; Biacore 8K, 25 °C; biAb (0.5-4 nM) captured on immobilised anti-human IgG on a CM4 chip; FVIIa (0-4 nM) or sTLT-1 (0-60 μM) injected; 10 mM HEPES, 150 mM NaCl, 0.05% polysorbate 20, pH 7.4, 5 mM CaCl2, 1 mg/ml BSA; Langmuir 1:1 kinetics; n = 2. For orientation: In SPR one partner is held on a chip, and binding of the other changes the refractive index at the surface.

Assay [2] concerns the target recombinant activated coagulation factor VII (Homo sapiens) (UniProt P08709). Put plainly: SPR; Biacore 8K, 25 °C; biAb (0.5-4 nM) captured on immobilised anti-human IgG (CM4 chip); FVIIa (0-4 nM) or sTLT-1 (0-60 μM) injected; 10 mM HEPES, 150 mM NaCl, 0.05% polysorbate 20, pH 7.4, 5 mM CaCl2, 1 mg/ml BSA; Langmuir 1:1 kinetics model; n = 2.
The target in assay [3] is soluble extracellular fragment of TREM-like transcript-1 (Homo sapiens (Human).) (UniProt Q86YW5). The description is as above.
Assay [4] has the same target. The assay is described as above. This is another data set of the same source.
Assay [5] deals with recombinant activated coagulation factor VII (rFVIIa, NovoSeven) (Homo sapiens) (UniProt P08709). Nature of the assay: SPR; Biacore 8K, 25 °C; FVIIa or FVII (2.5 nM) captured on immobilised anti-FVII IgG1 (against the Gla domain) on a CM4 chip; HMB-001 0-4 nM injected; 10 mM HEPES, 150 mM NaCl, 0.05% polysorbate 20, pH 7.4, 5 mM CaCl2, 1 mg/ml BSA; Langmuir 1:1 kinetics; n = 2.

The target in assay [6] is recombinant zymogen FVII (Homo sapiens) (UniProt P08709). The description is as above.
Assay [7] concerns the target recombinant activated coagulation factor VII (Homo sapiens) (UniProt P08709). Put plainly: SPR; Biacore 8K, 25 °C; FVIIa or FVII (2.5 nM) captured on immobilised anti-FVII IgG1 (CaFVII-22, against the Gla domain; CM4 chip); HMB-001 (0-4 nM) injected; 10 mM HEPES, 150 mM NaCl, 0.05% polysorbate 20, pH 7.4, 5 mM CaCl2, 1 mg/ml BSA; Langmuir 1:1 kinetics model; n = 2.
Assay [8] has as its target recombinant zymogen FVII (Homo sapiens) (UniProt P08709). The description is as above.
Assay [9] deals with T1, recombinant activated coagulation factor VII (rFVIIa, NovoSeven) (Homo sapiens, UniProt P08709).
T1 construct: source: bought: NovoSeven, Novo Nordisk
Put plainly: SPR; SPR binding assay of the monovalent control antibodies with their antigens; format not told. Particulars: both partners purified.

The target in assay [10] is T2, active site-inhibited FVIIa:soluble TF complex (FVIIai:sTF) (human | , UniProt P08709;P13726, active site inhibited with H-D-Phe-Phe-Arg-chloromethyl ketone (FFR-cmk)).
T2 construct: as the light chain of m8: factor VIIa light chain without the N-terminal Gla domain; as the heavy chain of m8: factor VIIa heavy chain (protease domain); as m9: tissue factor, amino acids 1-219; also called FVIIa:sTF complex; source: FVIIai from CHO cells and sTF from Escherichia coli; SEC-purified together with the Fab; copies: + +
Nature of the assay: crystal structure; SEC-purified Fab:FVIIai:sTF complex; sitting-drop vapor diffusion at 18 °C; 0.15 M CsCl, 15% PEG 3350; four complexes in the asymmetric unit. The conditions noted are these: both partners purified.

Assay [11] deals with T3, active site-inhibited FVIIa (FVIIai), prepared from FVIIa-desGLA (Homo sapiens, active site inhibited with H-D-Phe-Phe-Arg-chloromethyl ketone (FFR-cmk)).
T3 construct: source: CHO cells (CHO-EBNA), purified (VIISelect, desalted), then incubated with FFR-cmk
T3 chain 1: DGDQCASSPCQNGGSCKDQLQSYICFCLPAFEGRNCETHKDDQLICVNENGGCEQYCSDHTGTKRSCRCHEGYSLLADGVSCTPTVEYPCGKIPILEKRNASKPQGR
T3 chain 2: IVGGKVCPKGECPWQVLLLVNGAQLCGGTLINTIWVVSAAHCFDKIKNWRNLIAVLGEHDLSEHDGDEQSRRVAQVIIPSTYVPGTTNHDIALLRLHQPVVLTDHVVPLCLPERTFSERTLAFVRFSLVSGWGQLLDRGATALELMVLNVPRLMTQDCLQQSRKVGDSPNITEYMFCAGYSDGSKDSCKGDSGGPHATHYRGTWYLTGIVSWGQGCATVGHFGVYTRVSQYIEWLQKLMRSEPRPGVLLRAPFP
Described as above. Particulars: both partners purified.

In assay [12] the target is T4, sTLT-1 stalk peptide (37-mer TLT-1 peptide) (human).
T4 construct: TREM-like transcript-1 (TLT-1), amino acids 111-147 of mature TLT-1; numbers count on: the mature protein; Amino acids 7-21 of the peptide are seen in the crystal structure; also called synthetic stalk peptide of TLT-1; source: synthetic peptide
T4 chain: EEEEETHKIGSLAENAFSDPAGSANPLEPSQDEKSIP
Nature of the assay: crystal structure; gel-filtrated 1:1 Fab-sTLT-1 stalk peptide complex; sitting-drop vapor diffusion at 18 °C; 1 M LiCl, 0.1 M Na citrate-citric acid pH 4.0, 20% PEG 6000; two complexes in the asymmetric unit. The conditions noted are these: both partners purified.

Assay [13] deals with T5, soluble extracellular fragment of TLT-1 (sTLT-1) (human, UniProt Q86YW5).
T5 construct: TREM-like transcript-1 (TLT-1), amino acids 1-147 of mature TLT-1 (IgV domain 1-110 and stalk 111-147); numbers count on: the mature protein; two amino acid (valine-aspartic acid) linker before the His tag, told in words; source: CHO cells (ExpiCHO), transient transfection, purified (HisTrap); not shown: His tag, C-terminal, kept
Put plainly: SPR; SPR binding assay of the monovalent control antibodies with their antigens; format not told. Particulars: both partners purified.

“And” between values parts separate entries of the source, which are not always exact repeats. Equal entries are not always repeated. Where two headings read alike, the source gives them in different places.

Take HMB-001 (bispecific antibody): the Kd in assay [1] was 2.3 nM; in assay [2], 0.04 nM; in [3], 2.34 nM; in [4], 2.33 nM and 2.35 nM; in assay [5], 0.37 nM; in [6] it was 0.4 nM. For the same molecule, the Kd in assay [7] amounted to 0.37 nM; in assay [8], 0.4 nM. Also, the koff is 0.000127 s⁻¹ in assay [2]; 0.000641 s⁻¹ in assay [3]; 0.00061 s⁻¹ and 0.000672 s⁻¹ in [4]; 0.000664 s⁻¹ and 0.000665 s⁻¹ and 0.000666 s⁻¹ in assay [7]; 0.000725 s⁻¹ in assay [8]. The kon is 2.9e+06 M⁻¹ s⁻¹ in assay [2]; 274000 M⁻¹ s⁻¹ in assay [3]; 262000 M⁻¹ s⁻¹ and 286000 M⁻¹ s⁻¹ in assay [4]; 1.8e+06 M⁻¹ s⁻¹ in assay [7]; 1.83e+06 M⁻¹ s⁻¹ and 1.82e+06 M⁻¹ s⁻¹ in assay [8].

B1: monovalent control antibody with the FVIIa-binding arm of HMB-001 (antibody, V domains shown)
VH: QVQLQESGPGLVKPSQTLSLTCTVSGYSISSDSAWSWIRQPPGKGLEWIGYIQYSGSTNYNPSLKSRVTISRDTSKNQFSLKLSSVTAADTAVYYCARSVNYYGNSFAVGYWGQGTLVTVSS
VL: EIVLTQSPATLSLSPGERATLSCRASQGISDYLHWYQQKPGEAPRLLIKYTSQPATGIPARFSGSGSGTDFTLTISSLEPEDFAVYYCQNGHSFPLTFGQGTKLEIK
notes: as the heavy chain of the anti-FVIIa arm of m1; Fab part in PDB 8CN9; constant part as in PDB 5DK3 with the DuoBody mutations (EU numbering); as the light chain of the anti-FVIIa arm of m1; light chain of the Fab in PDB 8CN9; empty Fc, E216-G446 in EU numbering; About 100 kDa; also called anti-FVIIa cAb; monovalent cAb; source: DuoBody assembly of the parental anti-FVIIa antibody with an empty …
Regarding B1, the binding result in assay [9] was “binds”.

B2: anti-FVIIa Fab fragment of HMB-001 (Fab, V domains shown)
VH: QVQLQESGPGLVKPSQTLSLTCTVSGYSISSDSAWSWIRQPPGKGLEWIGYIQYSGSTNYNPSLKSRVTISRDTSKNQFSLKLSSVTAADTAVYYCARSVNYYGNSFAVGYWGQGTLVTVSS
VL: EIVLTQSPATLSLSPGERATLSCRASQGISDYLHWYQQKPGEAPRLLIKYTSQPATGIPARFSGSGSGTDFTLTISSLEPEDFAVYYCQNGHSFPLTFGQGTKLEIK
notes: Fab part of the heavy chain of the anti-FVIIa arm of m1; heavy chain of the Fab in PDB 8CN9; as the light chain of the anti-FVIIa arm of m1; light chain of the Fab in PDB 8CN9; also called anti-FVII Fab of HMB-001; source: HEK293 suspension cells (293Expi), transient transfection, purified (MabSelect SuRe)
Take B2: the binding result in assay [10] and in assay [11] was “binds” throughout.

B3: anti-TLT-1 Fab fragment of HMB-001 (Fab, V domains shown)
VH: EVQLVESGGGLVQPGGSLRLSCAASGFTFSRYWMTWVRQAPGKGLVWVGEINPDSSTINYAPSVKGRFTISRDNAKNTLYLQMNSLRAEDTAVYYCASGVFTSWGQGTLVTVSS
VL: DIVMTQTPLSSPVTLGQPASISCRSSQSLVHRQGNTYFHWLQQRPGQPPRLLIYKVSNRFSGVPDRFSGSGAGTDFTLKISRVEAEDVGVYYCSQSTHVPYTFGQGTKLEIK
notes: Fab part of the heavy chain of the anti-TLT-1 arm of m1; heavy chain of the Fab in PDB 8CHE; as the light chain of the anti-TLT-1 arm of m1; light chain of the Fab in PDB 8CHE; source: CHO cells, purified (KappaSelect)
As to B3, the binding result in assay [12] is on record as “binds”.

B4: monovalent control antibody with the TLT-1-binding arm of HMB-001 (antibody, V domains shown)
VH: EVQLVESGGGLVQPGGSLRLSCAASGFTFSRYWMTWVRQAPGKGLVWVGEINPDSSTINYAPSVKGRFTISRDNAKNTLYLQMNSLRAEDTAVYYCASGVFTSWGQGTLVTVSS
VL: DIVMTQTPLSSPVTLGQPASISCRSSQSLVHRQGNTYFHWLQQRPGQPPRLLIYKVSNRFSGVPDRFSGSGAGTDFTLKISRVEAEDVGVYYCSQSTHVPYTFGQGTKLEIK
notes: as the heavy chain of the anti-TLT-1 arm of m1 (without DuoBody mutations); Fab part in PDB 8CHE; constant part as in PDB 5DK3; as the light chain of the anti-TLT-1 arm of m1; light chain of the Fab in PDB 8CHE; empty Fc, E216-G446 in EU numbering; About 100 kDa; also called anti-TLT-1 cAb; monovalent cAb; source: DuoBody assembly of the parental anti-TLT-1 antibody with an empty Fc; purified by …
With B4, in assay [13], the binding result is on record as “binds”.

The record behind these values is paper PMC11358003, “A bispecific antibody approach for the potential prophylactic treatment of inherited bleeding disorders” (Nature Cardiovascular Research, 2024).
